Measured values: publication PMC9482650, “Quantitative fragmentomics allow affinity mapping of interactomes” (Nature Communications, 2022)
Blank lines part the entries; values can stand above or below the binder they belong to.

Columns and labels:
Assay in all cases: holdup assay
Parameters in all cases: key: below the threshold = too weak to quantify, mostly under pKd 3.1 to 4
[1] = biological target: T1, GRIP1_5, Q9Y3R0
T1 sequence (Q9Y3R0 568-668, limits assumed, looked up): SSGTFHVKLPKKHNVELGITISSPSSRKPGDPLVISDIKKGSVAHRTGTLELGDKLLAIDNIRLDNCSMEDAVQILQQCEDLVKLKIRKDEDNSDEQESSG

[2] = biological target: DLG4_1, P78352
Sequence of DLG4_1, P78352 (P78352 62-152): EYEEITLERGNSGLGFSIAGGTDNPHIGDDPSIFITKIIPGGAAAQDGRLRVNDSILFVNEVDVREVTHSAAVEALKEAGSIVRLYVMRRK

[3] = biological target: T2, LIN7C, Q9NUP9
T2 sequence (Q9NUP9 88-185, limits assumed, looked up): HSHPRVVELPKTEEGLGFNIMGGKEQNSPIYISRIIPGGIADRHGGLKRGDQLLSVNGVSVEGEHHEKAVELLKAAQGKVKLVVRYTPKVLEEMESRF

[4] = biological target: Inadl_2, Q8NI35
Sequence of Inadl_2, Q8NI35 (Q8NI35 238-335): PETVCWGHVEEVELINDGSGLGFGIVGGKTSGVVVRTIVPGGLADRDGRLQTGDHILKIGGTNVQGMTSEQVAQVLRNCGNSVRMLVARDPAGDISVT

[5] = biological target: DLG2_3, Q15700
[6] = biological target: GRIP2_5, Q9C0E4
Sequence of GRIP2_5, Q9C0E4 (Q9C0E4 544-642): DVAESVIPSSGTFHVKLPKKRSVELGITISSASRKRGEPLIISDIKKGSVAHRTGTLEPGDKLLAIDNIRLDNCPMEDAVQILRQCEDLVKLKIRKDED

[7] = biological target: MAGI3_2, Q5TCQ9
Sequence of MAGI3_2, Q5TCQ9 (Q5TCQ9 398-503): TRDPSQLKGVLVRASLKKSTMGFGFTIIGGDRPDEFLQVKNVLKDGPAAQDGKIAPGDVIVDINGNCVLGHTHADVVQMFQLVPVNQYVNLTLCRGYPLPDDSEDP

[8] = biological target: NHERF2_2, Q15599
Sequence of NHERF2_2, Q15599 (Q15599 142-238): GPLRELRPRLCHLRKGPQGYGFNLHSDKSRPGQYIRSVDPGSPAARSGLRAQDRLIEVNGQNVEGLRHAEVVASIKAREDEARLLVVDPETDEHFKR

[9] = biological target: LAP2, Q96RT1
Sequence of LAP2, Q96RT1 (Q96RT1 other isoform, or with tags, fused parts or gaps): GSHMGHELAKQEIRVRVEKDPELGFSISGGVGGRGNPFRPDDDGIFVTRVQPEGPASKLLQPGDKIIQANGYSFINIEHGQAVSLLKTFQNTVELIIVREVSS

[10] = biological target: T3, GRIP1_3, Q9Y3R0
T3 sequence (Q9Y3R0 247-346, limits assumed, looked up): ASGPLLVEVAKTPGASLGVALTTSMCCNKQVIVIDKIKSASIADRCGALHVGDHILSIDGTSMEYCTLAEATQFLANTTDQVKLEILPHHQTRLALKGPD

[11] = biological target: T4, GRIP1_4, Q9Y3R0
T4 sequence (Q9Y3R0 467-571, limits assumed, looked up): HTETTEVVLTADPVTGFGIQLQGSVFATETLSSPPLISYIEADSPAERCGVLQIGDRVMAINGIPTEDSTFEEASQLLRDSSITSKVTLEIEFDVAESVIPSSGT

[12] = biological target: T5, TIAM2, Q8IVF5
T5 sequence (Q8IVF5 885-986, limits assumed, looked up): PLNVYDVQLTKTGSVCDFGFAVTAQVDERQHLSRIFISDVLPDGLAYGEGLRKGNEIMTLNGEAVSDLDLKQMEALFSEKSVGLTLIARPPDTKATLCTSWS

[13] = biological target: T6, NHERF3_1, Q5T2W1
T6 sequence (Q5T2W1 4-100, limits assumed, looked up): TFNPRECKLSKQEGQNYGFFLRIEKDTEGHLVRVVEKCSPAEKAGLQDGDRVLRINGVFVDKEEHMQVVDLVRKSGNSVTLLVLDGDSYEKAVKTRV

[14] = biological target: T7, MPDZ_5, O75970
T7 sequence (O75970 695-796, limits assumed, looked up): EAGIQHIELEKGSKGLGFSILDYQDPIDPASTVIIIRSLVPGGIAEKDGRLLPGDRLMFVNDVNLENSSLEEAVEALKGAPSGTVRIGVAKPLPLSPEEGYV

[15] = biological target: Inadl_8, Q8NI35
Sequence of Inadl_8, Q8NI35 (Q8NI35 1425-1530): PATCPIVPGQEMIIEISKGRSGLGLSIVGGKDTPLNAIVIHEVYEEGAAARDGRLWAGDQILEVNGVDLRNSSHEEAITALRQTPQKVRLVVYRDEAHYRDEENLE

[16] = biological target: SCRIB_2, Q14160
Sequence of SCRIB_2, Q14160 (Q14160 857-960): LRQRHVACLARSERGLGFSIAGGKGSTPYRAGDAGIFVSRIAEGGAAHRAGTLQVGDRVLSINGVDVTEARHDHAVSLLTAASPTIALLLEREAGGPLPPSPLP

[17] = biological target: GRIP2_4, Q9C0E4
Sequence of GRIP2_4, Q9C0E4 (Q9C0E4 446-548): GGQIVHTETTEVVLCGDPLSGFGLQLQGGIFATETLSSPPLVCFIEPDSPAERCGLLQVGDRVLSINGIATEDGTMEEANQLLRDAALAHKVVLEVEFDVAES

[18] = biological target: IL16_3, Q14005
Sequence of IL16_3, Q14005 (Q14005 1107-1207): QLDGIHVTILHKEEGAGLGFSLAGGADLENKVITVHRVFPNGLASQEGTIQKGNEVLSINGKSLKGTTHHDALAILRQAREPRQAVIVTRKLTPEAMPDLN

[19] = biological target: DLG2_2, Q15700
[20] = biological target: Inadl_1, Q8NI35
Sequence of Inadl_1, Q8NI35 (Q8NI35 113-229): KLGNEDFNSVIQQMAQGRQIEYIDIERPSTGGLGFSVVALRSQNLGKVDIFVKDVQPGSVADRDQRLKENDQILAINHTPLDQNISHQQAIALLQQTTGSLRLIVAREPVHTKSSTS

[21] = biological target: T8, MPDZ_12, O75970
T8 sequence (O75970 1857-1958, limits assumed, looked up): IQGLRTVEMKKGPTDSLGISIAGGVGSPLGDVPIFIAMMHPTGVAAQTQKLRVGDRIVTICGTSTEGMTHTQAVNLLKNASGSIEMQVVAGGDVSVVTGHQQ

[22] = biological target: MAGI1_1, Q96QZ7
Sequence of MAGI1_1, Q96QZ7 (Q96QZ7 1-106): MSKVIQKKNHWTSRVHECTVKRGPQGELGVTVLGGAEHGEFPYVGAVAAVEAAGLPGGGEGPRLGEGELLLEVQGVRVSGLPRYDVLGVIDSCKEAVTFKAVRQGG

[23] = biological target: T9, APBA3_1, O96018
T9 sequence (O96018 389-490, limits assumed, looked up): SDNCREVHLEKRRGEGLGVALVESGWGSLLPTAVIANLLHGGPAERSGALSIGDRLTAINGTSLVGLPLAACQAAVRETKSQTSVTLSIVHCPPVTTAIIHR

[24] = biological target: T10, DVL3, Q92997
T10 sequence (Q92997 244-331, limits assumed, looked up): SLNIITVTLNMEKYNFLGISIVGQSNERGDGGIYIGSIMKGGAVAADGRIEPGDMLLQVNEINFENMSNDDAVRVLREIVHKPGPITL

[25] = biological target: PDLIM1, O00151
Sequence of PDLIM1, O00151 (O00151 1-87): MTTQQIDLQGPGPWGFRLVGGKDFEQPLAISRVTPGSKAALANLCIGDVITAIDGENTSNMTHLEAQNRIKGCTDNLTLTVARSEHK

[26] = biological target: T11, SIPA1L2, Q9P2F8
T11 sequence (Q9P2F8 945-1036, limits assumed, looked up): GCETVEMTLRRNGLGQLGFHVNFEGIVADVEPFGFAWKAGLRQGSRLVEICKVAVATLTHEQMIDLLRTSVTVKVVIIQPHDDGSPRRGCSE

[27] = plain residues with an end cap or a label only (N-terminal biotin on a linker: ttds)
[28] = plain residues with an end cap or a label only (N-terminal biotin on a linker: ado-ado)
[29] = plain residues with an end cap or a label only (N-terminal biotin on a linker: ahx)

B1: ARHGAP6, O43182 (peptide)
chain: NPDALPETLV
pKd [1, 27]: below the threshold
pKd [2, 27]: 4.13
pKd [3, 27]: 4.31
pKd [4, 27]: 3.93
pKd [5, 27]: 4.01
pKd [6, 27]: below the threshold
pKd [7, 27]: 4.6
pKd [8, 27]: below the threshold
pKd [9, 27]: 3.8
pKd [10, 27]: below the threshold
pKd [11, 27]: below the threshold
pKd [12, 27]: below the threshold
pKd [13, 27]: 4.55
pKd [14, 27]: below the threshold
pKd [15, 27]: below the threshold
pKd [16, 27]: 3.8
pKd [17, 27]: below the threshold
pKd [18, 27]: below the threshold
pKd [19, 27]: 4.23
pKd [20, 27]: below the threshold
pKd [21, 27]: below the threshold
pKd [22, 27]: below the threshold
pKd [23, 27]: below the threshold
pKd [24, 27]: below the threshold
pKd [25, 27]: below the threshold
pKd [26, 27]: below the threshold

B2: U2AF2, P26368 (peptide)
chain: PDSYHRRDFW
pKd [1, 28]: below the threshold
pKd [2, 28]: 3.62
pKd [3, 28]: below the threshold
pKd [4, 28]: below the threshold
pKd [5, 28]: below the threshold
pKd [6, 28]: below the threshold
pKd [7, 28]: below the threshold
pKd [8, 28]: 3.79
pKd [9, 28]: below the threshold
pKd [10, 28]: below the threshold
pKd [11, 28]: below the threshold
pKd [12, 28]: below the threshold
pKd [13, 28]: below the threshold
pKd [14, 28]: below the threshold
pKd [15, 28]: 3.48
pKd [16, 28]: below the threshold
pKd [17, 28]: below the threshold
pKd [18, 28]: below the threshold
pKd [19, 28]: below the threshold
pKd [20, 28]: below the threshold
pKd [21, 28]: below the threshold
pKd [22, 28]: below the threshold
pKd [23, 28]: below the threshold
pKd [24, 28]: below the threshold
pKd [25, 28]: below the threshold
pKd [26, 28]: below the threshold

Second part, the binder after the results:

pKd [1, 27]: below the threshold
pKd [2, 27]: 3.83
pKd [3, 27]: below the threshold
pKd [4, 27]: below the threshold
pKd [5, 27]: 3.63
pKd [6, 27]: below the threshold
pKd [7, 27]: 3.81
pKd [8, 27]: below the threshold
pKd [9, 27]: 3.88
pKd [10, 27]: below the threshold
pKd [11, 27]: below the threshold
pKd [12, 27]: below the threshold
pKd [13, 27]: 4.31
pKd [14, 27]: 3.52
pKd [15, 27]: 4.89
pKd [16, 27]: below the threshold
pKd [17, 27]: below the threshold
pKd [18, 27]: below the threshold
pKd [19, 27]: 3.89
pKd [20, 27]: below the threshold
pKd [21, 27]: 3.66
pKd [22, 27]: below the threshold
pKd [23, 27]: below the threshold
pKd [24, 27]: below the threshold
pKd [25, 27]: below the threshold
pKd [26, 27]: below the threshold
B3: GDA, Q9Y2T3 (peptide)
chain: KQVVPFSSSV

pKd [1, 29]: below the threshold
pKd [2, 29]: 4.2
pKd [3, 29]: below the threshold
pKd [4, 29]: below the threshold
pKd [5, 29]: 4.06
pKd [6, 29]: below the threshold
pKd [7, 29]: 3.68
pKd [8, 29]: below the threshold
pKd [9, 29]: 5.73
pKd [10, 29]: below the threshold
pKd [11, 29]: below the threshold
pKd [12, 29]: below the threshold
pKd [13, 29]: below the threshold
pKd [14, 29]: below the threshold
pKd [15, 29]: 3.87
pKd [16, 29]: 5.16
pKd [17, 29]: below the threshold
pKd [18, 29]: below the threshold
pKd [19, 29]: below the threshold
pKd [20, 29]: below the threshold
pKd [21, 29]: 4.4
pKd [22, 29]: below the threshold
pKd [23, 29]: below the threshold
pKd [24, 29]: 3.96
pKd [25, 29]: 3.55
pKd [26, 29]: below the threshold
B4: ARVCF, O00192 (peptide)
chain: AKPQPVDSWV

pKd [1, 29]: below the threshold
pKd [2, 29]: 3.93
pKd [3, 29]: below the threshold
pKd [4, 29]: below the threshold
pKd [5, 29]: 4.13
pKd [6, 29]: below the threshold
pKd [7, 29]: below the threshold
pKd [8, 29]: below the threshold
pKd [9, 29]: 3.59
pKd [10, 29]: below the threshold
pKd [11, 29]: below the threshold
pKd [12, 29]: below the threshold
pKd [13, 29]: 3.88
pKd [14, 29]: below the threshold
pKd [15, 29]: 3.64
pKd [16, 29]: 3.82
pKd [17, 29]: below the threshold
pKd [18, 29]: below the threshold
pKd [19, 29]: 3.62
pKd [20, 29]: below the threshold
pKd [21, 29]: below the threshold
pKd [22, 29]: below the threshold
pKd [23, 29]: below the threshold
pKd [24, 29]: below the threshold
pKd [25, 29]: below the threshold
pKd [26, 29]: below the threshold
B5: DLL1, O00548 (peptide)
chain: KDECVIATEV
